Data taken from patent publication US12194076B2, “Methods and compositions for treating myelofibrosis” (Acceleron Pharma Inc., priority 2016, dated 2025).
Blank lines part the entries; values can stand above or below the molecule they belong to.

How the values were obtained:
[1] = system: anemic myelofibrosis patients; conditions: cited from earlier work
GDF11 [2] = target: T1, GDF11 (Homo sapiens, UniProt O95390); experiment: Biacore steady-state affinity of ActRIIB-hFc proteins for GDF11; assay type: binding; conditions: compared to counterparts lacking the L79D substitution
T1 sequence (O95390 299-407): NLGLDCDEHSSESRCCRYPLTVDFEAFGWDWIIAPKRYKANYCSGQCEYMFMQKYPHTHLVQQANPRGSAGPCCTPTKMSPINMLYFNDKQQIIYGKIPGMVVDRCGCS
Experimental: (§1) Affinities of several ligands for ActRIIB(25-131)-hFc and its full-length counterpart ActRIIB(20-134)-hFc were evaluated in vitro with a Biacore™ instrument, and the results are summarized in the table below. Kd values were obtained by steady-state affinity fit due to very rapid association and dissociation of the complex, which prevented accurate determination of kon and koff. ActRIIB(25-131)-hFc bound activin A, activin B, and GDF11 with high affinity.
(§2) The affinity of GDF traps and other ActRIIB-hFc proteins for several ligands was evaluated in vitro with a Biacore™ instrument. Kd values were obtained by steady-state affinity fit due to the very rapid association and dissociation of the complex, which prevented accurate determination of kon and koff.

BMP10 = target: T2, BMP10 (Homo sapiens, UniProt O95393); experiment: Biacore ligand binding of GDF trap, BMP10
T2 sequence (O95393 317-424): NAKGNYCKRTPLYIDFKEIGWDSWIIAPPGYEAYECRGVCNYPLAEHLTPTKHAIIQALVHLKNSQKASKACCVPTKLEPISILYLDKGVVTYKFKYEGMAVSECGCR
Experimental: as §2

Activin A [3] = target: T3, Activin A (Homo sapiens, UniProt P08476); experiment: Biacore steady-state affinity of ActRIIB-hFc proteins for activin A; assay type: binding; conditions: compared to counterparts lacking the L79D substitution
T3 sequence (P08476 311-426): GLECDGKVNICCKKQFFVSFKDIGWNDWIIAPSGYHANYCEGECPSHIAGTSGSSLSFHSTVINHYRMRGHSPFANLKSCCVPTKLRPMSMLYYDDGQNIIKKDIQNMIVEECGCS
Experimental: as §1, §2

Activin B = target: T4, Activin B (Homo sapiens, UniProt P09529); experiment: Biacore steady-state affinity of ActRIIB-hFc proteins for activin B; assay type: binding; conditions: compared to counterparts lacking the L79D substitution
T4 sequence (P09529 293-407): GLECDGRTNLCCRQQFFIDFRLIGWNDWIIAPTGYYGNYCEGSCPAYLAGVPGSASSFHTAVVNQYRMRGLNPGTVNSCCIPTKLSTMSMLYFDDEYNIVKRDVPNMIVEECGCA
Experimental: as §1, §2

GDF8 [4] = target: T5, GDF8 (Homo sapiens, UniProt O14793); experiment: Biacore ligand binding of GDF trap, GDF8
T5 sequence (O14793 267-375): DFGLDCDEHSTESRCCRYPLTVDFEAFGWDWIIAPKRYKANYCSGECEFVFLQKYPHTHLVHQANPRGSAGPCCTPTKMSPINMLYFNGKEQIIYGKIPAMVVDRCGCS
Experimental: as §2

BMP6 = target: T6, BMP6 (Homo sapiens, UniProt P22004); experiment: Biacore ligand binding of GDF trap, BMP6
T6 sequence (P22004 375-513): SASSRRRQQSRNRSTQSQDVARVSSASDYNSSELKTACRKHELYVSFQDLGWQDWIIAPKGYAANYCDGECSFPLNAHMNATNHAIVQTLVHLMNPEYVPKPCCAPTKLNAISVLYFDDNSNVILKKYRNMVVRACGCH
Experimental: as §2

GDF11 [5] = target: T1, GDF11; conditions: ligand coupled to the device; reproduced from WO2006/012627; cited from earlier work
Serum half-life in rats = assay type: in vivo
Experimental: Several variants have been assessed for serum half-life in rats. ActRIIB(20-134)-Fc has a serum half-life of approximately 70 hours. […] Any of the variants tested above, may be combined with the GDF trap molecules.

GDF11 [6] = target: T1, GDF11; experiment: Affinity/binding of ActRIIB-Fc fusion proteins for GDF11; conditions: ActRIIB-Fc fusion protein, position 64 variant
activin [7] = experiment: Affinity/binding of ActRIIB-Fc fusion proteins for activin; conditions: ActRIIB-Fc fusion protein, position 64 variant
GDF11 [8] = target: T1, GDF11; conditions: see U.S. Pat. No. 7,842,663; cited from earlier work
activin [9] = conditions: see U.S. Pat. No. 7,842,663; cited from earlier work
GDF8 [10] = target: T5, GDF8; experiment: Biacore assay, receptor captured with anti-hFc antibody, GDF8 injected; assay type: binding; conditions: receptor captured via anti-hFc antibody
Experimental: (§3) Binding of certain ActRIIB-Fc proteins and GDF traps to ligands was tested in a Biacore™ assay.
(§4) The ActRIIB-Fc variants or wild-type protein were captured onto the system using an anti-hFc antibody. Ligands were injected and flowed over the captured receptor proteins.

GDF11 [11] = target: T1, GDF11; experiment: Biacore assay, receptor captured with anti-hFc antibody, GDF11 injected; assay type: binding; conditions: receptor captured via anti-hFc antibody
Experimental: as §3, §4

GDF8 [12] = target: T5, GDF8; experiment: A-204 reporter gene assay, inhibition of GDF-8 activity; assay type: cell-based; parameters: host or cells: added to A-204 cells (human rhabdomyosarcoma)
Activin A [13] = target: T3, Activin A; experiment: Biacore assay, receptor captured with anti-hFc antibody, activin A injected; assay type: binding; conditions: receptor captured via anti-hFc antibody
Experimental: as §3, §4

GDF11 [14] = target: T1, GDF11; experiment: A-204 reporter gene assay, inhibition of GDF-11 signaling; assay type: cell-based; parameters: host or cells: added to A-204 cells (human rhabdomyosarcoma)
Description: (§5) An A-204 reporter gene assay was used to evaluate the effects of ActRIIB-Fc proteins and GDF traps on signaling by GDF-11 and activin A. Cell line: human rhabdomyosarcoma (derived from muscle). Reporter vector: pGL3(CAGA)12 (described in Dennler et al, 1998, EMBO 17: 3091-3100). The CAGA12 motif is present in TGF-beta responsive genes (e.g., PAI-1 gene), so this vector is of general use for factors signaling through SMAD2 and 3.
(§6) Day 1: Split A-204 cells into 48-well plate.
(§7) Day 2: A-204 cells transfected with 10 ug pGL3(CAGA)12 or pGL3(CAGA)12(10 ug)+pRLCMV (1 μg) and Fugene.
(§8) Day 3: Add factors (diluted into medium+0.1% BSA). Inhibitors need to be preincubated with factors for 1 hr before adding to cells. Six hrs later, cells were rinsed with PBS and lysed.
(§9) This is followed by a luciferase assay.
(§10) Activity of ActRIIB-Fc proteins and GDF traps was tested in a cell-based assay as described above. Some variants were tested in different C-terminal truncation constructs. As discussed above, truncations of five or fifteen amino acids caused reduction in activity.

Activin A [15] = target: T3, Activin A; experiment: A-204 reporter gene assay, inhibition of activin A signaling; assay type: cell-based; parameters: host or cells: added to A-204 cells (human rhabdomyosarcoma)
Description: as §5, §6, §7, §8, §9, §10

Molecule: C#C[C@]1(O)CC[C@H]2[C@@H]3CCC4=Cc5oncc5C[C@]4(C)[C@H]3CC[C@@]21C [danazol]
anemia response rate [1]: around 20%

GDF11 binding, in words (GDF11 [2]): nearly full retention
binding to BMP10, in words (BMP10): strong to intermediate
activin A binding, in words (Activin A [3]): pronounced loss
activin B binding, in words (Activin B): partial loss
binding to GDF8, in words (GDF8 [4]): strong to intermediate
binding to BMP6, in words (BMP6): strong to intermediate
Molecule: ActRIIB(L79D 25-131)-hFc: GDF trap with truncated ActRIIB extracellular domain (residues 25-131, L79D) fused to human Fc, SEQ ID NO: 50, 53

B1: K74A: soluble ActRIIB-Fc variant K74A, data from WO2006/012627 (protein)
chain: SGRGEAETRECIYYNANWELERTNQSGLERCEGEQDKRLHCYASWANSSGTIELVAKGCWLDDFNCYDRQECVATEENPQVYFCCCEGNFCNERFTHLPEA
modifications: left off: a dimerising Fc or GST
GDF11 binding relative to WT (GDF11 [5]): +++++ (~40x increased binding)

B2: ActRIIB(20-134)-Fc: ActRIIB-Fc fusion protein containing amino acids 20-134 of SEQ ID NO: 1 (protein)
chain: GRGEAETRECIYYNANWELERTNQSGLERCEGEQDKRLHCYASWRNSSGTIELVKKGCWLDDFNCYDRQECVATEENPQVYFCCCEGNFCNERFTHLPEAGGPEVTYEPPPTAPT
modifications: Fc fusion partner without entry
serum half-life (Serum half-life in rats): approximately 70 hours

affinity for GDF11, in words (GDF11 [6]): relatively low affinity
affinity for activin, in words (activin [7]): relatively low affinity
B3: A64 20-134: ActRIIB-Fc fusion protein, residues 20-134, alanine at position 64 (protein)
chain: GRGEAETRECIYYNANWELERTNQSGLERCEGEQDKRLHCYASWANSSGTIELVKKGCWLDDFNCYDRQECVATEENPQVYFCCCEGNFCNERFTHLPEAGGPEVTYEPPPTAPT
modifications: Fc fusion partner without entry

B4: ActRIIB(20-119)-Fc: ActRIIB-Fc fusion protein containing amino acids 20-119 of SEQ ID NO: 1 (protein)
chain: GRGEAETRECIYYNANWELERTNQSGLERCEGEQDKRLHCYASWRNSSGTIELVKKGCWLDDFNCYDRQECVATEENPQVYFCCCEGNFCNERFTHLPEA
modifications: Fc fusion, Fc no entry
binding to GDF11 relative to ActRIIB(20-134)-Fc (GDF11 [8]): reduced
binding to activin relative to ActRIIB(20-134)-Fc (activin [9]): reduced

Koff (1/s), GDF8 (GDF8 [10]): 3.45e-05 s⁻¹
Koff (1/s), GDF11 (GDF11 [11]): 0.000113 s⁻¹
affinity for GDF11, in words (GDF11 [6]): low nanomolar to high picomolar range
inhibition of GDF-8 activity, in words (GDF8 [12]): potent inhibitor
affinity for activin, in words (activin [7]): low nanomolar to high picomolar range
Koff (1/s), Activin A (Activin A [13]): 0.000159 s⁻¹
Kon (1/Ms), Activin A (Activin A [13]): 5.94e+06 M⁻¹ s⁻¹
inhibition of GDF-11 activity, in words (GDF11 [14]): potent inhibitor
inhibition of activin A activity, in words (Activin A [15]): potent inhibitor
B5: ActRIIB(20-134)-hFc: extracellular domain of human ActRIIB (20-134, R64) fused to human Fc with three-glycine linker, SEQ ID NO: 24 (protein)
chain: GRGEAETRECIYYNANWELERTNQSGLERCEGEQDKRLHCYASWRNSSGTIELVKKGCWLDDFNCYDRQECVATEENPQVYFCCCEGNFCNERFTHLPEAGGPEVTYEPPPTAPTGGGTHTCPPCPAPELLGGPSVFLFPPKPKDTLMISRTPEVTCVVVDVSHEDPEVKFNWYVDGVEVHNAKTKPREEQYNSTYRVVSVLTVLHQDWLNGKEYKCKVSNKALPVPIEKTISKAKGQPREPQVYTLPPSREEMTKNQVSLTCLVKGFYPSDIAVEWESNGQPENNYKTTPPVLDSDGSFFLYSKLTVDKSRWQQGNVFSCSVMHEALHNHYTQKSLSLSPGK
